According to paper doi:10.1101/2024.07.19.604271:
Read-outs that look alike come from different tables or passages of the source.

What was measured:
[1] = target: stabilized microtubules polymerized from pig brain tubulin (GMPCPP-stabilized or Taxotere-stabilized) (pig); test: TIRF microscopy of fluorescent kinesin on surface-attached microtubules
[2] = target: stabilized microtubules polymerized from pig brain tubulin (GMPCPP-stabilized or Taxotere-stabilized) (pig); test: as above; remark: listed apart in the source
[3] = target: full-length Kip2-Δ70 (S. cerevisiae) (UniProt P28743); test: TIRF microscopy, tubulin transport assay

Substance	fold lower affinity than bKip2-WT [1] [fold]	fold lower affinity than bKip2-WT [2] [fold]	fold reduction of tubulin transport events against wild type Kip2 [3] [fold]
bKip2-P1 (motor domain P1 mutant, K294R K296R) (from UniProt P28743 1-560) (domain or fragment)	3.5	2.8	
bKip2-Δ70 (from UniProt P28743 71-560) (domain or fragment)	1.3		
free tubulin dimers, ATTO-488-labelled, from pig brain (complex)			3 to 8
